From PMC6103272, “Genome-Wide Association Studies of Free Amino Acid Levels by Six Multi-Locus Models in Bread Wheat” (Frontiers in Plant Science, 2018)

What was measured:
[1] = tested on: N[C@@H](Cc1c[nH]c2ccccc12)C(=O)O; assay: decarboxylase kinetics, Michaelis-Menten fit; product tryptamine by LC-MS; assay type: biochemical, Oryza sativa; details: 50 ppm PLP, 10-1,250 uM tryptophan, assay buffer of the standard assay 50 mM Tris-HCl pH 8.0, 37 C
TraesCS1D01G052500 = tested on: T1, TraesCS1D01G052500; assay: as above; assay type: biochemical, Triticum aestivum; details: 50 ppm PLP; 10-1,250 uM tryptophan; assay buffer of the standard assay 50 mM Tris-HCl pH 8.0, 37 C
T1 construct: gene TDC; full-length cDNA in pGEX-6p-1; E. coli BL21(DE3)

Compound | Km [1] | kcat [1] | kcat/Km [1] | Km (TraesCS1D01G052500)
OsTDC1 (Oryza sativa Japonica Group) | 310 ± 30 µM | 3.66 ± 0.27 s⁻¹ | 11800 M⁻¹ s⁻¹ | 
N[C@@H](Cc1c[nH]c2ccccc12)C(=O)O [tryptophan] |  |  |  | 100 ± 10 µM
